Results: patent US20220265769A1 (GEISINGER HEALTH, published 2022)

What was measured:
TBX3 = target: T1, TBX3 (human, UniProt O15119 1-743, limits assumed); assay: IP and immunoblot, primary human fibroblasts
T1 sequence (looked up): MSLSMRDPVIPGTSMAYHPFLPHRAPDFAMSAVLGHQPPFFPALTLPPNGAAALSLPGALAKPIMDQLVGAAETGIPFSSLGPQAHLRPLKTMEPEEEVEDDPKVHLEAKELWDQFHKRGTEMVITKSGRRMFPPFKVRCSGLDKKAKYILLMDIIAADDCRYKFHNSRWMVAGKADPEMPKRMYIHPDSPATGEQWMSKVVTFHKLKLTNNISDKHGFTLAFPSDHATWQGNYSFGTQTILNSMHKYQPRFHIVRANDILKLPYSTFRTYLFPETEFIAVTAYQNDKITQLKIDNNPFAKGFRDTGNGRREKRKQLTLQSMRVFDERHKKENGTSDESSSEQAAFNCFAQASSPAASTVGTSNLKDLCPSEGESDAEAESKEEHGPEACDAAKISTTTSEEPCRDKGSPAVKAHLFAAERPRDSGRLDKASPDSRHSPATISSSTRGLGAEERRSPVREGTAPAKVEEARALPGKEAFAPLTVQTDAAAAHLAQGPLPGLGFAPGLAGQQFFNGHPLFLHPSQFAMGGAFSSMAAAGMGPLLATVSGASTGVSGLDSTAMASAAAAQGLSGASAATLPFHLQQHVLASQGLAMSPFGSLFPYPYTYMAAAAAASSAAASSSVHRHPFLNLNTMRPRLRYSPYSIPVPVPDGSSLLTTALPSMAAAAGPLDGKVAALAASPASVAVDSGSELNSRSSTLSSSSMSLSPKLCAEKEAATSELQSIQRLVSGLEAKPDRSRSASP

estrogen receptor (ERα) = target: T2, estrogen receptor (ERα) (human, UniProt P03372 1-595); assay: IP and immunoblot, T47D, MDA-MB231 and PME cells (FIG. 14F)
T2 construct: also called ESR1
T2 sequence (looked up): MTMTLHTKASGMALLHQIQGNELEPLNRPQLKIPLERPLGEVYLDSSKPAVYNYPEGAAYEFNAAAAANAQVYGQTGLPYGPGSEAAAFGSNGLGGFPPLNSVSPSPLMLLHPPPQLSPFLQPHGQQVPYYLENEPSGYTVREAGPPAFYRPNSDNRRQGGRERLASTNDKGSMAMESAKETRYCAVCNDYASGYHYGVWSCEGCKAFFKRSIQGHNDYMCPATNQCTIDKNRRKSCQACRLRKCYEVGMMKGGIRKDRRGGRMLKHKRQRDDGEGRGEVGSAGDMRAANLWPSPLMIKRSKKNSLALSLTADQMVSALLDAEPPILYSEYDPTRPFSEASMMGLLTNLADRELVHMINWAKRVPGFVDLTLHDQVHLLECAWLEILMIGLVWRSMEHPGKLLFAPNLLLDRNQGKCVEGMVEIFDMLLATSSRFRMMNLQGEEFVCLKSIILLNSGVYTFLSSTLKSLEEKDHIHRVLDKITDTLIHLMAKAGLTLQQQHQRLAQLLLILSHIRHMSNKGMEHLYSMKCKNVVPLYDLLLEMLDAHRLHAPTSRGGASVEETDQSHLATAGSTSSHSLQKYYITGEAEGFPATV

HCF-1 = HCF-1 (human, UniProt P51610 2-2035, limits assumed); assay: as above
EZH2 = EZH2 (human, UniProt Q15910 1-746, limits assumed); assay: IP and immunoblot, T47D cells and primary human fibroblasts
Sequence of EZH2 (Q15910 whole entry): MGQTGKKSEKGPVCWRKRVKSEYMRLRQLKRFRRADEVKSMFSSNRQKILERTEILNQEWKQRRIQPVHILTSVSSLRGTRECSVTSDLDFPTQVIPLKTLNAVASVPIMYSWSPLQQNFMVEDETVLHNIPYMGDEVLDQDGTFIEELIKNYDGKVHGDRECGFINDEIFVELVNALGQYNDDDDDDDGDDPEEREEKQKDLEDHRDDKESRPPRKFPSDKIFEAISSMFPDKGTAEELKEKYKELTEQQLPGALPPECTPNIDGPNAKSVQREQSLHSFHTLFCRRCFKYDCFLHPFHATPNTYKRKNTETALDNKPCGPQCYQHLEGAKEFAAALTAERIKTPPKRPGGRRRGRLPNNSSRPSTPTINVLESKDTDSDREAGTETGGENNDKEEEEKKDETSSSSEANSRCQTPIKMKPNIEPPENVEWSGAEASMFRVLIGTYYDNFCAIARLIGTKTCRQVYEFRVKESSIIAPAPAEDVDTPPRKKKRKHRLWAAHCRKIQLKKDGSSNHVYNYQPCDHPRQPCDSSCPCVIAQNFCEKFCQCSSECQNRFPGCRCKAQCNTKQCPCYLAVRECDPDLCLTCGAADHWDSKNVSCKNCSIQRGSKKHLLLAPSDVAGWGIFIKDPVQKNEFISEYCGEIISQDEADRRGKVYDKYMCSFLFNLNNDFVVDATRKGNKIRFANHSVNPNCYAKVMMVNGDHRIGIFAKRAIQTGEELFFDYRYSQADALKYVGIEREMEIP

Sequence of HCF-1 (P51610 2-2035 limits assumed): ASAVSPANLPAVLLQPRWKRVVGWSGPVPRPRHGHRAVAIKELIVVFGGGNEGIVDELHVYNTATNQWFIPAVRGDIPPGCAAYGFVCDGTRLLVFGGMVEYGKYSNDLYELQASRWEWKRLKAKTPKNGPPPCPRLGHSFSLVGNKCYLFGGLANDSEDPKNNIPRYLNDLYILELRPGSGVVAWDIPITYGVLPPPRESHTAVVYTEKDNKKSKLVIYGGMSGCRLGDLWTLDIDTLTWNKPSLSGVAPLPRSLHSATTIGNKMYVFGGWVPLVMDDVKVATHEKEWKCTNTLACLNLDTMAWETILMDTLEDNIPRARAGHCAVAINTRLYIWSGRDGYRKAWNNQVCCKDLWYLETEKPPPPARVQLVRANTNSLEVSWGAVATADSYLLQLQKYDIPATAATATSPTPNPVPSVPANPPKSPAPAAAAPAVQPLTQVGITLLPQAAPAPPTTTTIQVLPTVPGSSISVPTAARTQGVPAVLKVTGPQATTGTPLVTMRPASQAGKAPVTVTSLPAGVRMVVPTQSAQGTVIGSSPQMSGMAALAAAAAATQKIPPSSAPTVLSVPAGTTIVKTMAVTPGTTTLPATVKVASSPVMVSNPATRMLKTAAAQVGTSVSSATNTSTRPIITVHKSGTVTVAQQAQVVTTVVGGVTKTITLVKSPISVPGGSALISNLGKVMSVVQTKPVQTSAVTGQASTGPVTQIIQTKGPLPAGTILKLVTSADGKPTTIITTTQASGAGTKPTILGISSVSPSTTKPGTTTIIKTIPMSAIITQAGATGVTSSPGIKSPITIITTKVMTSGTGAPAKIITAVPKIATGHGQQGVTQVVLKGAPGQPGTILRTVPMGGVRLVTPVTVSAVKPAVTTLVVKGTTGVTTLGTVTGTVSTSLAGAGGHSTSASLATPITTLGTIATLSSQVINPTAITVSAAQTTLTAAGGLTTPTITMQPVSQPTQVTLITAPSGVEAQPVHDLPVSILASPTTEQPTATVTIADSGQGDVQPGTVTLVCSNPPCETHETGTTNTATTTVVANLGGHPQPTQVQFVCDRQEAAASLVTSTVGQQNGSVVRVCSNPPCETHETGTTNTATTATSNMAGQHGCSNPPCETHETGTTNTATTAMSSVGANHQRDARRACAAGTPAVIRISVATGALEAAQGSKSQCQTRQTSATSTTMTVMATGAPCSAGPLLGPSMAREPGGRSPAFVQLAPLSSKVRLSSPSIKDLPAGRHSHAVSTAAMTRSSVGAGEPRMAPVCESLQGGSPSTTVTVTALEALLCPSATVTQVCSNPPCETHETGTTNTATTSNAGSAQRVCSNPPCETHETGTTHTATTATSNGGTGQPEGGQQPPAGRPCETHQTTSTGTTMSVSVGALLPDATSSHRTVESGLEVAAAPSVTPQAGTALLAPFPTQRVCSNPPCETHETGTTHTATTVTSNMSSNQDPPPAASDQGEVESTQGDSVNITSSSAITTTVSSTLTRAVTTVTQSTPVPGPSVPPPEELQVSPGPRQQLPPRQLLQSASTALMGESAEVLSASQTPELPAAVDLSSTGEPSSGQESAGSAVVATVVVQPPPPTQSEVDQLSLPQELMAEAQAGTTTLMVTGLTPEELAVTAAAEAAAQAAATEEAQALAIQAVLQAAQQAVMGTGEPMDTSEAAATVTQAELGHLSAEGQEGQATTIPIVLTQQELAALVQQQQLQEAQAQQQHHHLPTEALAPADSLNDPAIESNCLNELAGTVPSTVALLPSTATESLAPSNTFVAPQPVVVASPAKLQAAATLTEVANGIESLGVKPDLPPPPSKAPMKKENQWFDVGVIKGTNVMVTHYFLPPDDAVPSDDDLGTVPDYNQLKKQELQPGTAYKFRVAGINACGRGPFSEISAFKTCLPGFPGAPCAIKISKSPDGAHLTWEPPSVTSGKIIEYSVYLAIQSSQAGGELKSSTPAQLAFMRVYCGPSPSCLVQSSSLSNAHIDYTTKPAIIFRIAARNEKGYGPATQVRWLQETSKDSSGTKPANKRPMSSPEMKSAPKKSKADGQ

binding result (TBX3): binds
binding result (estrogen receptor (ERα)): no binding
binding result (HCF-1): no binding
binding result (EZH2): binds
B1: CAPERα (Coactivator of AP1 and Estrogen Receptor) (other, human, UniProt Q14498 2-530, looked up)
chain: ADDIDIEAMLEAPYKKDENKLSSANGHEERSKKRKKSKSRSRSHERKRSKSKERKRSRDRERKKSKSRERKRSRSKERRRSRSRSRDRRFRGRYRSPYSGPKFNSAIRGKIGLPHSIKLSRRRSRSKSPFRKDKSPVREPIDNLTPEERDARTVFCMQLAARIRPRDLEEFFSTVGKVRDVRMISDRNSRRSKGIAYVEFVDVSSVPLAIGLTGQRVLGVPIIVQASQAEKNRAAAMANNLQKGSAGPMRLYVGSLHFNITEDMLRGIFEPFGRIESIQLMMDSETGRSKGYGFITFSDSECAKKALEQLNGFELAGRPMKVGHVTERTDASSASSFLDSDELERTGIDLGTTGRLQLMARLAEGTGLQIPPAAQQALQMSGSLAFGAVAEFSFVIDLQTRLSQQTEASALAAAASVQPLATQCFQLSNMFNPQTEEEVGWDTEIKDDVIEECNKHGGVIHIYVDKNSAQGNVYVKCPSIAAAIAAVNALHGRWFAGKMITAAYVPLPTYHNLFPDSMTATQLLVPSRR
notes: Endogenous protein immunoprecipitated or blotted from Dignam lysates; also called RBM39
